Results taken from article PMC4898654 (Biochemistry, 2016).
Values belong to the molecule of their own block, whether it stands above or below them. Where no end group is shown, it is not given here.

How the values were obtained:
Polκ RIR (Homo sapiens) [1] = molecular target: Polκ RIR (Homo sapiens) (UniProt Q9UBT6); experiment: intrinsic tryptophan fluorescence; settings: cited from earlier work
Polκ RIR (Homo sapiens) [2] = molecular target: Polκ RIR (Homo sapiens) (UniProt Q9UBT6); experiment: SPR; settings: cited from earlier work
Rev1-CT domain = settings: human RIR motifs; cited from earlier work
yeast Rev7 = settings: unstructured C-terminal part of Pol32, purified proteins; cited from earlier work
[3] = molecular target: T1, Human Rev1 C-terminal domain (Rev1-CT; residues 1158-1251) (human, UniProt Q9UBZ9 1158-1251); experiment: SPR
T1 sequence (looked up): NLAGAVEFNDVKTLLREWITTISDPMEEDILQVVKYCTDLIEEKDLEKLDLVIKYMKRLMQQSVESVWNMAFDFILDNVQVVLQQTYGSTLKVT

Molecule: Rev1 CTD (from UniProt Q9UBZ9)
- Kd (Polκ RIR (Homo sapiens) [1]): 300 nM
- Kd (Polκ RIR (Homo sapiens) [2]): 7.6 µM

Molecule: CEMSHKKSFFDKKRSER [Polκ-RIR]
- affinity range of Rev1-CT interactions with RIR motifs (Rev1-CT domain): µM to mM affinities

B1: Pol32: subunit of yeast Polζ (homologue of human PolD3) (protein, UniProt P47110 1-350, looked up)
DNA polymerase delta subunit 3: MDQKASYFINEKLFTEVKPVLFTDLIHHLKIGPSMAKKLMFDYYKQTTNAKYNCVVICCYKDQTIKIIHDLSNIPQQDSIIDCFIYAFNPMDSFIPYYDIIDQKDCLTIKNSYELKVSESSKIIERTKTLEEKSKPLVRPTARSKTTPEETTGRKSKSKDMGLRSTALLAKMKKDRDDKETSRQNELRKRKEENLQKINKQNPEREAQMKELNNLFVEDDLDTEEVNGGSKPNSPKETDSNDKDKNNDDLEDLLETTAEDSLMDVPKIQQTKPSETEHSKEPKSEEEPSSFIDEDGYIVTKRPATSTPPRKPSPVVKRALSSSKKQETPSSNKRLKKQGTLESFFKRKAK
- Rev7 - Pol32 interaction (yeast Rev7): direct interaction

- Kd [3]: 1700 ± 600 nM
B2: Polκ-RIR peptide (residues 560-575) modified with an N-terminal cysteine residue (peptide)
peptide: EMSHKKSFFDKKRSER
